In patent US20200386770A1 (YUROGEN BIOSYSTEMS, published 2020):

How the values were obtained:
human PD-L2 = target: T1, human PD-L2 (human, UniProt Q9BQ51 20-220, limits assumed); experiment: direct ELISA, human PD-L2 coated
T1 construct: Coated on plates in the direct ELISA; construct not described; also called programmed death ligand-2
T1 sequence (looked up): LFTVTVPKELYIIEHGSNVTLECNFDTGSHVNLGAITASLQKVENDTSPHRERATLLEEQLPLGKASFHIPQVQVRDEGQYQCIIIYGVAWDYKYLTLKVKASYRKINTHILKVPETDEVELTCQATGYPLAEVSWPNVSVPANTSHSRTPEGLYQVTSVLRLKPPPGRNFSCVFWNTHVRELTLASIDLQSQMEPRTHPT
Method: The procedures of the direct ELISA are described in the method below. […] The negative control was conducted using the same procedures as the anti-human PD-L1 antibodies, except that a blank buffer is used instead of the anti-human PD-L1 antibodies. The blank buffer is the buffer for diluting the anti-human PD-L1 antibodies. […] Thereby, 2C5, 3B8, 8C6, 10H6, 11G7, and 12H2 can eliminate the cross-reactivity of human PD-L2.
(§1) 3. Direct ELISA with rabbit monoclonal antibodies against human PD-L1 or PD-L2. Human PD-L1 and PD-L2 were coated on high binding ELISA plates at 4° C. overnight in 1×PBS, pH7.4. Coated plates were washed with Wash Buffer (1×PBS supplemented with 0.5% (V/V) Tween-20), and blocked with Blocking Buffer (1×PBS supplemented with 5% (W/V) skim milk). After blocking, plates were incubated with rabbit anti-PD-L1 monoclonal antibodies for 1 hour at room temperature, followed by washing and incubation with goat anti-rabbit IgG antibody conjugated with HRP. After a final wash, plated were developed using colorimetric reaction catalyzed by HRP to see if a monoclonal antibody can or cannot bind to PD-L1 and PD-L2.

human PD-L1 [1] = target: T2, human PD-L1 (human, UniProt Q9NZQ7 19-238, limits assumed); experiment: direct ELISA, 10 ng/ml human PD-L1
T2 construct: also called programmed death ligand-1; CD274
Method: as §1

human PD-L1 [2] = target: T2, human PD-L1; experiment: sandwich ELISA (8C6 capture, 2C5 detection) compared with direct ELISA
Method: As compared to the direct ELISA with 8C6 shown in FIG. […] The sandwich ELISA enhances the sensitivity of human PD-L1 to 2C5, as compared to the direct ELISA.
as §1
5. Sandwich ELISA with rabbit monoclonal antibodies against human PD-L1. Capture antibodies were coated on high binding ELISA plates at 4° C. overnight in bicarbonate buffer. Coated plates were washed with Wash Buffer (1×PBS supplemented with 0.5% (V/V) Tween-20), and blocked with Blocking Buffer (1×PBS supplemented with 5% (W/V) skim milk). […]

T2 sequence (Q9NZQ7 19-238 limits assumed): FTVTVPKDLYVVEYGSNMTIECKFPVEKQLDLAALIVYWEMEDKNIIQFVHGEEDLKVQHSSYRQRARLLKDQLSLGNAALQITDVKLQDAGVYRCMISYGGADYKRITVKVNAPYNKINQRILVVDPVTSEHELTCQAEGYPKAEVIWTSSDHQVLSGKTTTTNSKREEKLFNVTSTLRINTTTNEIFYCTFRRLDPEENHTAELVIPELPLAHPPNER

| Binder | binding result (human PD-L2) | OD450 at 10 ng/ml (human PD-L1 [1]) [OD450] | fold sensitivity, sandwich ELISA against direct ELISA (human PD-L1 [2]) [fold] |
| --- | --- | --- | --- |
| rabbit anti-human PD-L1 mAb 3B8 (antibody, V domains shown, Recombinant rabbit IgG; Full heavy chain assembled from the Fab heavy chain entry followed by the Fc entry; Biotinylated when used as detection antibody in the sandwich ELISA) VH: QSLEESGGDLVKPGASRTLTCTASGFSFSNNAYMCWVRQAPGKGLELIACIYSRYGNTHYASWAKGRFTISKTSSTTVTLQMTSLTAADTATYFCARGASGSSDYSFYFNLWGPGTLVTVSS VL: AYDMTQTPASVEVAVGGTVTIKCQASQSISSWLAWYQQKPGQPPKLLIYDAYDLASGVPSRFKGSGSGTQFTLTISGVECTDAATYYCQQGYSSENIDNSFGGGTDVVVKG | no binding (tested: concentrations up to 1000 ng/ml) |  |  |
| rabbit anti-human PD-L1 mAb 12H2 (antibody, V domains shown, Recombinant rabbit IgG; Full heavy chain assembled from the Fab heavy chain entry followed by the Fc entry) VH: QEQLVESGGGLVQPEGSLTLTCTASGFSFSSSYYMCWVRQAPGKGLEWIACIWTSNGGRTYYANWAKGRFTISETSSTTVTLQMTSLTAADTATYFCARDDDTGSGYYNLWGPGTLVTVSS VL: QIVMTQTASPVSAAVGGTVTINCQASESISSWLAWYQQKPGQPPKLLIYKASTLASGVPSRFKGSGSGTEFTLTISDLECADAATYYCQHGYYFGSVANTFGGGTEVVVKG | no binding (tested: concentrations up to 1000 ng/ml) |  |  |
| rabbit anti-human PD-L1 mAb 11G7 (antibody, V domains shown, Recombinant rabbit IgG; Full heavy chain assembled from the Fab heavy chain entry followed by the Fc entry) VH: QSVEESGGRLVTPGTPLTLTCTVSGIDLSSYDMTWVRQAPGKGLEYIGYISYFDKTYYATWAKGRFTISKTSTTVDLKMTSLTTEDTATYFCVRDRPDGITANLWGQGTLVTVSS VL: AQLPTQTASPVSAAVGGTVTINCQSSHNVYSDNRLSWYQQKPGQPPKLLIYWASILASGVPSRFKGSGSGTQFTLTITDLECDDAATYYCAGGYSGNIYTFGGGTEVVVKG | no binding (tested: concentrations up to 1000 ng/ml) | ~0.1 |  |
| rabbit anti-human PD-L1 mAb 10H6 (antibody, V domains shown, Recombinant rabbit IgG; Full heavy chain assembled from the Fab heavy chain entry followed by the Fc entry) VH: QEQLVESGGGLVQPEGSLTLTCTASGFSFSSIYYLCWVRQAPGKGLEWIACIYGGNSDNTWYASWAKGRFTISKTSSTTVTLQMTSLTAADTATYFCARGYDIYGYAINLWGPGTLVTVSS VL: DVVMTQTPASVEAAVGGTVTIKCQASQSIGGYLAWYQQKPGQPPKLLIYRASTLESGVASRFKGSGSGTEFTLTISDLECADAATYYCQCTYDSSNSRIYPNVFGGGTEVVVKG | no binding (tested: concentrations up to 1000 ng/ml) |  |  |
| rabbit anti-human PD-L1 mAb 2C5 (antibody, V domains shown, Recombinant rabbit IgG; Full heavy chain assembled from the Fab heavy chain entry followed by the Fc entry; Biotinylated when used as detection antibody in the sandwich ELISA) VH: QSVEESGGRLVTPGTPLTLTCTVSGFSLNNDNVGWVRQAPGKGLEWVGLIDILGSSYYASWAKGRFTISKTSNTVDLKITSPTIEDTATYFCAREGDGSFDPWGPGTLVTVSS VL: AQVLTQTPSPVSAAVGGTVTINCQASQNVYNKKNLAWYQQKLGQPPKLLIYKASTLASGVPSRFSGSGSGTQFTLTISDLECDDAATYYCQGDYIGSRAFGGGTEVVVKG | no binding (tested: concentrations up to 1000 ng/ml) |  | ≥ 2 |
| rabbit anti-human PD-L1 mAb 8C6 (antibody, V domains shown, Recombinant rabbit IgG; Full heavy chain assembled from the Fab heavy chain entry followed by the Fc entry; Biotinylated when used as detection antibody in the sandwich ELISA) VH: QSVEESGGRLVTPGTPLTLTCTASGFDISRHHMCWVRQAPGEGLEYIGFINPPGSAYYANWAKGRFTISRTSTTVALEMTSLTTEDTATYFCARWRFDDYGDLWGQGTLVTVSS VL: AYDMTQTPASVEVAVGGTVTIKCQASESIASYLAWYQQKPGQPPKLLIYKASTLASGVSSRFRGSGSGTEFTLTISGVECADAATYYCQQGYSATNIDNAFGGGTEVVVKG | no binding (tested: concentrations up to 1000 ng/ml) |  |  |
